Assay results reported in patent US20220072032A1 (AARHUS UNIVERSITET, published 2022).

Legend:
[1] = target: T1, PCSK9 mutant R104R105 (alanine substitutions) (human, UniProt Q8NBP7 31-692, 35S metabolic label); assay: immunoprecipitation of 35S-labelled PCSK9 WT and alanine variants, autoradiography [CONT.) I]
T1 construct: also called variant R104R105

R93R104R105H139 = target: T2, R93R104R105H139 (35S metabolic label); assay: as above
T2 construct: also called 35S PCSK9 variant R93R104R105H139
T2 sequence (PCSK9, as listed by the source limits assumed): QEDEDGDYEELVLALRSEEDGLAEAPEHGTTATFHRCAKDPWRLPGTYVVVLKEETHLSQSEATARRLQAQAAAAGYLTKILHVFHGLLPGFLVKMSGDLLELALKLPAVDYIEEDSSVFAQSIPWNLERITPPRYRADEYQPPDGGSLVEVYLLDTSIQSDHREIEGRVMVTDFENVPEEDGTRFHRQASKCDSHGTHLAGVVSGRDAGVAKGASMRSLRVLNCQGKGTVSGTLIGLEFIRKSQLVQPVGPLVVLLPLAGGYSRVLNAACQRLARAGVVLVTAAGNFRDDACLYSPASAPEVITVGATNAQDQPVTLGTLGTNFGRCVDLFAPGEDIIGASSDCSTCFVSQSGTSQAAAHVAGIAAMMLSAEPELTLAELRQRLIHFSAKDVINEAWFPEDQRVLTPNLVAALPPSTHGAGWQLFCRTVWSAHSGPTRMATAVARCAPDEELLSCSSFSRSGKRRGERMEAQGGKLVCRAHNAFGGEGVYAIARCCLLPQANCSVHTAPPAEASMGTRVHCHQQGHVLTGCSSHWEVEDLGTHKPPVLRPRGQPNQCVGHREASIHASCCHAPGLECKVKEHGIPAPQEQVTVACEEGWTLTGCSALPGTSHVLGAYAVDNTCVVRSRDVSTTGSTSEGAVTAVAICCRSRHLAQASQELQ

[2] = target: T3, PCSK9 mutant R96R97 (alanine substitutions) (human, UniProt Q8NBP7 31-692, 35S metabolic label); assay: as above
T3 construct: also called variant R96R97
T3 sequence (Q8NBP7 other isoform, or with tags, fused parts or gaps mutant limits assumed): as the sequence (PCSK9, as listed by the source limits assumed) above, with A63R, R66A, R67A, A74R, A75R, A109H counted along it

[3] = target: T4, PCSK9 mutant R93R96R97R104R105H139 (all mutated to alanine) (human, UniProt Q8NBP7 31-692, 35S metabolic label); assay: immunoprecipitation of 35S-labelled PCSK9 mutant R93R96R97R104R105H139 (all to alanine) by mAb, autoradiography (16 h) [CONT.) H]
T4 construct: also called mutant PCSK9; 35S-mutant PCSK9
T4 sequence (Q8NBP7 other isoform, or with tags, fused parts or gaps mutant limits assumed): as the sequence (PCSK9, as listed by the source limits assumed) above, with R66A, R67A counted along it

[4] = target: Wild type human PCSK9 (proprotein convertase subtilisin-like/kexin type 9) (human, UniProt Q8NBP7 31-692, 35S metabolic label in the immunoprecipitations); assay: cell-based or functional assay
Chain of Wild type human PCSK9 (proprotein convertase subtilisin-like/kexin type 9) (Q8NBP7 31-692 limits assumed): as the sequence (PCSK9, as listed by the source limits assumed) above, with A63R, A74R, A75R, A109H counted along it

T1 sequence (Q8NBP7 other isoform, or with tags, fused parts or gaps mutant limits assumed): as the sequence (PCSK9, as listed by the source limits assumed) above, with A63R, A109H counted along it

binding result [1] | binding result (R93R104R105H139) | binding result [2] | cellular levels of LDLR in HepG2 cells (Western blot) [4] [fold] | Binder | binding result [3]
no binding | no binding | no binding | ~2 | mAb 5E11 (rat hybridoma BNT-5E11-D4/G1-E4) (antibody, V domains shown, Rat monoclonal antibody, used as conditioned hybridoma medium) VH: EVQLQESGPGLVKPSQSLSLTCSVTGYTITSGYDWSWIRRFPGNTMEWMGDISYSGSTNYNPSLKSRVSITRDTSKNQFFLQLNSVTTGDTATYYCAKLPGWGQGTLVTVSS VL: DVVLTQTPVFLSVTLGDQTSISCRSSQSLEYSDGYTYLEWYLQKPGQSPQLLIYEVSNRFSGVPDRFIGSGSGTDFTLKISRVEPEDLGVYYCFQGTHDPLTFGSGTKLEIK | no binding (tested: 500 µl conditioned hybridoma medium)
– | – | – | ~2 | mAb 8H4 (rat hybridoma BNT-8H4-B8/C7-E11) (antibody, V domains shown, Rat monoclonal antibody, used as conditioned hybridoma medium) VH: QVTLKESGPGILQPSQTLSLTCSFSGFSLSSSGICVSWIRQPSGKGLEWLATICWEDSKGYNPSLKNRLTISKDTSNNQALLRITSVDTADTAIYYCARVYYWYFDFWGPGTMVTVSS VL: DIVMTQSPSLLSASVGDRVTLSCKGSQNINNYLAWYQQKLGEAPKLLIYNTNSLQTGIPSRFSGSGSGTDCTLTIRSLQPEDVATYFCYQYNNGNTFGGGTKLELK | no binding (tested: 500 µl conditioned hybridoma medium)
